Data from patent US20240141027A1 (BIOARCTIC, published 2024).

B1: mAb158-scLc-15G11-1-Ig.1 (bispecific antibody, human IgG1, kappa)
heavy: not shown
chain: DIVMTQAPLSLPVSLGDQASISCRSSQSIVHSNGNTYLEWYLQKPGQSPKLLIYKVSNRFSGVPDRFSGSGSGTDFTLKISRVEAEDLGIYYCFQGSHVPPTFGGGTKLEIKRTVAAPSVFIFPPSDEQLKSGTASVVCLLNNFYPREAKVQWKVDNALQSGNSQESVTEQDSKDSTYSLSSTLTLSKADYEKHKVYACEVTHQGLSSPVTKSFNRGECGGGGSGGGGSGGGGSEVQLVQSGAEVKKPGASVKVSCKASGYTFTSYWMHWVRQAPGQRLEWIGEINPTNGRTNYIEKFKSRATLTVDKSASTAYMELSSLRSEDTAVYYCARGTRAYHYWGQGTMVTVSSGGGGSGGGGSGGGGSDIQMTQSPSSLSASVGDRVTITCRASDNLYSNLAWYQQKPGKSPKLLVYDATNLADGVPSRFSGSGSGTDYTLTISSLQPEDFATYYCQHFWGTPLTFGQGTKVEIKGGGGSGGGGSGGGGSDIVMTQAPLSLPVSLGDQASISCRSSQSIVHSNGNTYLEWYLQKPGQSPKLLIYKVSNRFSGVPDRFSGSGSGTDFTLKISRVEAEDLGIYYCFQGSHVPPTFGGGTKLEIKRTVAAPSVFIFPPSDEQLKSGTASVVCLLNNFYPREAKVQWKVDNALQSGNSQESVTEQDSKDSTYSLSSTLTLSKADYEKHKVYACEVTHQGLSSPVTKSFNRGEC
notes: Format [LC-L1-scBM-L2-LC]
B2: mAb158-scLc-8D3-Ig.14 (bispecific antibody, human IgG1, kappa)
heavy: not shown
chain: DIVMTQAPLSLPVSLGDQASISCRSSQSIVHSNGNTYLEWYLQKPGQSPKLLIYKVSNRFSGVPDRFSGSGSGTDFTLKISRVEAEDLGIYYCFQGSHVPPTFGGGTKLEIKRADAAPTVSIFPPSSEQLTSGGASVVCFLNNFYPKDINVKWKIDGSERQNGVLNSWTDQDSKDSTYSMSSTLTLTKDEYERHNSYTCEATHKTSTSPIVKSFNRNECGGGGSGGGGSGGGGSGGGGSGGGGSDIQMTQSPASLSASLEEIVTITCQASQDIGNWLAWYQQKPGKSPQLLIYGATSLADGVPSRFSGSRSGTQFSLKISRVQVEDIGIYYCLQAYNTPWTFGGGTKLELKRGGGGSGGGGSGGGGSEVQLVESGGGLVQPGNSLTLSCVASGFTFSNYGMHWIRQAPKKGLEWIAMIYYDSSKMNYADTVKGRFTISRDNSKNTLYLEMNSLRSEDTAMYYCAVPTSHYVVDVWGQGVSVTVSSGGGGSGGGGSGGGGSDIVMTQAPLSLPVSLGDQASISCRSSQSIVHSNGNTYLEWYLQKPGQSPKLLIYKVSNRFSGVPDRFSGSGSGTDFTLKISRVEAEDLGIYYCFQGSHVPPTFGGGTKLEIKRADAAPTVSIFPPSSEQLTSGGASVVCFLNNFYPKDINVKWKIDGSERQNGVLNSWTDQDSKDSTYSMSSTLTLTKDEYERHNSYTCEATHKTSTSPIVKSFNRNEC
notes: Format [LC-L1-scBM-L2-LC]; also called mAb158-scLc-Ig.14
B3: mAb158-scLc-8D3-Ig.8 (bispecific antibody, human IgG1, kappa)
heavy: not shown
chain: DIVMTQAPLSLPVSLGDQASISCRSSQSIVHSNGNTYLEWYLQKPGQSPKLLIYKVSNRFSGVPDRFSGSGSGTDFTLKISRVEAEDLGIYYCFQGSHVPPTFGGGTKLEIKRADAAPTVSIFPPSSEQLTSGGASVVCFLNNFYPKDINVKWKIDGSERQNGVLNSWTDQDSKDSTYSMSSTLTLTKDEYERHNSYTCEATHKTSTSPIVKSFNRNECGGGGSGGGGSGGGGSEVQLVESGGGLVQPGNSLTLSCVASGFTFSNYGMHWIRQAPKKGLEWIAMIYYDSSKMNYADTVKGRFTISRDNSKNTLYLEMNSLRSEDTAMYYCAVPTSHYVVDVWGQGVSVTVSSGGGGSGGGGSGGGGSDIQMTQSPASLSASLEEIVTITCQASQDIGNWLAWYQQKPGKSPQLLIYGATSLADGVPSRFSGSRSGTQFSLKISRVQVEDIGIYYCLQAYNTPWTFGGGTKLELKRGGGGSGGGGSGGGGSDIVMTQAPLSLPVSLGDQASISCRSSQSIVHSNGNTYLEWYLQKPGQSPKLLIYKVSNRFSGVPDRFSGSGSGTDFTLKISRVEAEDLGIYYCFQGSHVPPTFGGGTKLEIKRADAAPTVSIFPPSSEQLTSGGASVVCFLNNFYPKDINVKWKIDGSERQNGVLNSWTDQDSKDSTYSMSSTLTLTKDEYERHNSYTCEATHKTSTSPIVKSFNRNEC
notes: Format [LC-L1-scBM-L2-LC]
B4: mAb158-scLc-8D3-Ig.7 (bispecific antibody, human IgG1, kappa)
heavy: not shown
chain: DIVMTQAPLSLPVSLGDQASISCRSSQSIVHSNGNTYLEWYLQKPGQSPKLLIYKVSNRFSGVPDRFSGSGSGTDFTLKISRVEAEDLGIYYCFQGSHVPPTFGGGTKLEIKRADAAPTVSIFPPSSEQLTSGGASVVCFLNNFYPKDINVKWKIDGSERQNGVLNSWTDQDSKDSTYSMSSTLTLTKDEYERHNSYTCEATHKTSTSPIVKSFNRNECGGGGSGGGGSEVQLVESGGGLVQPGNSLTLSCVASGFTFSNYGMHWIRQAPKKGLEWIAMIYYDSSKMNYADTVKGRFTISRDNSKNTLYLEMNSLRSEDTAMYYCAVPTSHYVVDVWGQGVSVTVSSGGGGSGGGGSGGGGSDIQMTQSPASLSASLEEIVTITCQASQDIGNWLAWYQQKPGKSPQLLIYGATSLADGVPSRFSGSRSGTQFSLKISRVQVEDIGIYYCLQAYNTPWTFGGGTKLELKRGGGGSGGGGSDIVMTQAPLSLPVSLGDQASISCRSSQSIVHSNGNTYLEWYLQKPGQSPKLLIYKVSNRFSGVPDRFSGSGSGTDFTLKISRVEAEDLGIYYCFQGSHVPPTFGGGTKLEIKRADAAPTVSIFPPSSEQLTSGGASVVCFLNNFYPKDINVKWKIDGSERQNGVLNSWTDQDSKDSTYSMSSTLTLTKDEYERHNSYTCEATHKTSTSPIVKSFNRNEC
notes: Format [LC-L1-scBM-L2-LC]
B5: mAb158-scLc-8D3-Ig.11 (bispecific antibody, human IgG1, kappa)
heavy: not shown
chain: DIVMTQAPLSLPVSLGDQASISCRSSQSIVHSNGNTYLEWYLQKPGQSPKLLIYKVSNRFSGVPDRFSGSGSGTDFTLKISRVEAEDLGIYYCFQGSHVPPTFGGGTKLEIKRADAAPTVSIFPPSSEQLTSGGASVVCFLNNFYPKDINVKWKIDGSERQNGVLNSWTDQDSKDSTYSMSSTLTLTKDEYERHNSYTCEATHKTSTSPIVKSFNRNECGGGGSGGGGSGGGGSGGGGSGGGGSEVQLVESGGGLVQPGNSLTLSCVASGFTFSNYGMHWIRQAPKKGLEWIAMIYYDSSKMNYADTVKGRFTISRDNSKNTLYLEMNSLRSEDTAMYYCAVPTSHYVVDVWGQGVSVTVSSGGGGSGGGGSGGGGSDIQMTQSPASLSASLEEIVTITCQASQDIGNWLAWYQQKPGKSPQLLIYGATSLADGVPSRFSGSRSGTQFSLKISRVQVEDIGIYYCLQAYNTPWTFGGGTKLELKRGGGGSGGGGSGGGGSDIVMTQAPLSLPVSLGDQASISCRSSQSIVHSNGNTYLEWYLQKPGQSPKLLIYKVSNRFSGVPDRFSGSGSGTDFTLKISRVEAEDLGIYYCFQGSHVPPTFGGGTKLEIKRADAAPTVSIFPPSSEQLTSGGASVVCFLNNFYPKDINVKWKIDGSERQNGVLNSWTDQDSKDSTYSMSSTLTLTKDEYERHNSYTCEATHKTSTSPIVKSFNRNEC
notes: Format [LC-L1-scBM-L2-LC]
B6: mAb158-scLc-8D3-Ig.9 (bispecific antibody, human IgG1, kappa)
heavy: not shown
chain: DIVMTQAPLSLPVSLGDQASISCRSSQSIVHSNGNTYLEWYLQKPGQSPKLLIYKVSNRFSGVPDRFSGSGSGTDFTLKISRVEAEDLGIYYCFQGSHVPPTFGGGTKLEIKRADAAPTVSIFPPSSEQLTSGGASVVCFLNNFYPKDINVKWKIDGSERQNGVLNSWTDQDSKDSTYSMSSTLTLTKDEYERHNSYTCEATHKTSTSPIVKSFNRNECGGGGSGGGGSGGGGSGGGGSEVQLVESGGGLVQPGNSLTLSCVASGFTFSNYGMHWIRQAPKKGLEWIAMIYYDSSKMNYADTVKGRFTISRDNSKNTLYLEMNSLRSEDTAMYYCAVPTSHYVVDVWGQGVSVTVSSGGGGSGGGGSGGGGSDIQMTQSPASLSASLEEIVTITCQASQDIGNWLAWYQQKPGKSPQLLIYGATSLADGVPSRFSGSRSGTQFSLKISRVQVEDIGIYYCLQAYNTPWTFGGGTKLELKRGGGGSGGGGSGGGGSGGGGSDIVMTQAPLSLPVSLGDQASISCRSSQSIVHSNGNTYLEWYLQKPGQSPKLLIYKVSNRFSGVPDRFSGSGSGTDFTLKISRVEAEDLGIYYCFQGSHVPPTFGGGTKLEIKRADAAPTVSIFPPSSEQLTSGGASVVCFLNNFYPKDINVKWKIDGSERQNGVLNSWTDQDSKDSTYSMSSTLTLTKDEYERHNSYTCEATHKTSTSPIVKSFNRNEC
notes: Format [LC-L1-scBM-L2-LC]
B7: mAb158-scLc-8D3-Ig.12 (bispecific antibody, human IgG1, kappa)
heavy: not shown
chain: DIVMTQAPLSLPVSLGDQASISCRSSQSIVHSNGNTYLEWYLQKPGQSPKLLIYKVSNRFSGVPDRFSGSGSGTDFTLKISRVEAEDLGIYYCFQGSHVPPTFGGGTKLEIKRADAAPTVSIFPPSSEQLTSGGASVVCFLNNFYPKDINVKWKIDGSERQNGVLNSWTDQDSKDSTYSMSSTLTLTKDEYERHNSYTCEATHKTSTSPIVKSFNRNECGGGGSGGGGSGGGGSGGGGSGGGGSEVQLVESGGGLVQPGNSLTLSCVASGFTFSNYGMHWIRQAPKKGLEWIAMIYYDSSKMNYADTVKGRFTISRDNSKNTLYLEMNSLRSEDTAMYYCAVPTSHYVVDVWGQGVSVTVSSGGGGSGGGGSGGGGSDIQMTQSPASLSASLEEIVTITCQASQDIGNWLAWYQQKPGKSPQLLIYGATSLADGVPSRFSGSRSGTQFSLKISRVQVEDIGIYYCLQAYNTPWTFGGGTKLELKRGGGGSGGGGSGGGGSGGGGSDIVMTQAPLSLPVSLGDQASISCRSSQSIVHSNGNTYLEWYLQKPGQSPKLLIYKVSNRFSGVPDRFSGSGSGTDFTLKISRVEAEDLGIYYCFQGSHVPPTFGGGTKLEIKRADAAPTVSIFPPSSEQLTSGGASVVCFLNNFYPKDINVKWKIDGSERQNGVLNSWTDQDSKDSTYSMSSTLTLTKDEYERHNSYTCEATHKTSTSPIVKSFNRNEC
notes: Format [LC-L1-scBM-L2-LC]; also called mAb158-scLc-Ig.12
B8: mAb158-scLc-8D3-Ig.10 (bispecific antibody, human IgG1, kappa)
heavy: not shown
chain: DIVMTQAPLSLPVSLGDQASISCRSSQSIVHSNGNTYLEWYLQKPGQSPKLLIYKVSNRFSGVPDRFSGSGSGTDFTLKISRVEAEDLGIYYCFQGSHVPPTFGGGTKLEIKRADAAPTVSIFPPSSEQLTSGGASVVCFLNNFYPKDINVKWKIDGSERQNGVLNSWTDQDSKDSTYSMSSTLTLTKDEYERHNSYTCEATHKTSTSPIVKSFNRNECGGGGSGGGGSGGGGSGGGGSGGGGSEVQLVESGGGLVQPGNSLTLSCVASGFTFSNYGMHWIRQAPKKGLEWIAMIYYDSSKMNYADTVKGRFTISRDNSKNTLYLEMNSLRSEDTAMYYCAVPTSHYVVDVWGQGVSVTVSSGGGGSGGGGSGGGGSDIQMTQSPASLSASLEEIVTITCQASQDIGNWLAWYQQKPGKSPQLLIYGATSLADGVPSRFSGSRSGTQFSLKISRVQVEDIGIYYCLQAYNTPWTFGGGTKLELKRGGGGSGGGGSDIVMTQAPLSLPVSLGDQASISCRSSQSIVHSNGNTYLEWYLQKPGQSPKLLIYKVSNRFSGVPDRFSGSGSGTDFTLKISRVEAEDLGIYYCFQGSHVPPTFGGGTKLEIKRADAAPTVSIFPPSSEQLTSGGASVVCFLNNFYPKDINVKWKIDGSERQNGVLNSWTDQDSKDSTYSMSSTLTLTKDEYERHNSYTCEATHKTSTSPIVKSFNRNEC
notes: Format [LC-L1-scBM-L2-LC]

Tests used:
[1] = biological target: T1, recombinant Aβ1-42; assay: indirect ELISA, plates coated with recombinant Aβ1-42
T1 construct: Coated at 0.5 µg/ml on ELISA plates; also called Amyloid Beta (Aβ1-42)

[2] = biological target: T2, recombinant murine transferrin receptor 1 (mTfR1), extracellular domain fused to a His-tag (murine, UniProt Q62351 89-763); assay: BLI (Octet), mTfR1 captured on holo-transferrin sensors, analyte 50 nM
T2 construct: Position of the His-tag (N or C) unknown; also called recombinant mTfR1; murine TfR1; not shown: His-tag
T2 sequence (Q62351 89-763): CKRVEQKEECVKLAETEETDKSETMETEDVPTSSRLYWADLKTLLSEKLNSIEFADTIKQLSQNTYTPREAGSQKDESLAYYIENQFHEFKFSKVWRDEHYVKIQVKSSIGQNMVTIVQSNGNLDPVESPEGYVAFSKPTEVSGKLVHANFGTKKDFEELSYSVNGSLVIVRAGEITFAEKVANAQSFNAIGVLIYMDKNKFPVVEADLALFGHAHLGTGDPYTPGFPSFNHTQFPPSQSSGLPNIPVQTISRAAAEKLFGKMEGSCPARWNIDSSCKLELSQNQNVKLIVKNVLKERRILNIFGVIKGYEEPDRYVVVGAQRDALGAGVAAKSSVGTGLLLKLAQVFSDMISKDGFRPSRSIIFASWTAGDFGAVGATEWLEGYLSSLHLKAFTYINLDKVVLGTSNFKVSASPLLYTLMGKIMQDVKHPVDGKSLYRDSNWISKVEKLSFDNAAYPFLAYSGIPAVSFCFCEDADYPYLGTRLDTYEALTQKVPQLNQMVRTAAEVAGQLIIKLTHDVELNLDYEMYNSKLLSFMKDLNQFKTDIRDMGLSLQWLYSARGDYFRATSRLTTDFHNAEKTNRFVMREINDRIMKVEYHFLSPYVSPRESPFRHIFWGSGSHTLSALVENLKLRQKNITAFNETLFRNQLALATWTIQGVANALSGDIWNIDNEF

T1 sequence (peptide, as listed by the source): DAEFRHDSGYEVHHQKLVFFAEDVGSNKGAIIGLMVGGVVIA

Binder	binding result [1]	binding result [2]
B1	binds	–
B2	binds	binds
B3	binds	binds
B4	binds	binds
B5	binds	binds
B6	binds	binds
B7	binds	binds
B8	binds	binds
